Source: patent publication US20060018896

B1: functionally active murine recombinant MASP-2 protein (protein)
chain: SKWPEPVFGRLVSPGFPEKYADHQDRSWTLTAPPGYRLRLYFTHFDLELSYRCEYDFVKLSSGTKVLATLCGQESTDTEQAPGNDTFYSLGPSLKVTFHSDYSNEKPFTGFEAFYAAEDVDECRVSLGDSVPCDHYCHNYLGGYYCSCRAGYVLHQNKHTCSALCSGQVFTGKSGYLSSPEYPQPYPKLSSCTYSIRLEDGFSVILDFVESFDVETHPEAQCPYDSLKIQTDKGEHGPFCGKTLPPRIETDSHKVTITFATDESGNHTGWKIHYTSTARPCPDPTAPPNGSISPVQAIYVLKDRFYVFCKTGFELLQGSVPLKSFTAVCQKDGSWDRPMPECS
B2: catalytically inactive murine MASP-2A recombinant protein (protein)
chain: B1 chain

Molecular target: purified human C4, P0C0L4
Sequence (P0C0L4 whole entry, looked up): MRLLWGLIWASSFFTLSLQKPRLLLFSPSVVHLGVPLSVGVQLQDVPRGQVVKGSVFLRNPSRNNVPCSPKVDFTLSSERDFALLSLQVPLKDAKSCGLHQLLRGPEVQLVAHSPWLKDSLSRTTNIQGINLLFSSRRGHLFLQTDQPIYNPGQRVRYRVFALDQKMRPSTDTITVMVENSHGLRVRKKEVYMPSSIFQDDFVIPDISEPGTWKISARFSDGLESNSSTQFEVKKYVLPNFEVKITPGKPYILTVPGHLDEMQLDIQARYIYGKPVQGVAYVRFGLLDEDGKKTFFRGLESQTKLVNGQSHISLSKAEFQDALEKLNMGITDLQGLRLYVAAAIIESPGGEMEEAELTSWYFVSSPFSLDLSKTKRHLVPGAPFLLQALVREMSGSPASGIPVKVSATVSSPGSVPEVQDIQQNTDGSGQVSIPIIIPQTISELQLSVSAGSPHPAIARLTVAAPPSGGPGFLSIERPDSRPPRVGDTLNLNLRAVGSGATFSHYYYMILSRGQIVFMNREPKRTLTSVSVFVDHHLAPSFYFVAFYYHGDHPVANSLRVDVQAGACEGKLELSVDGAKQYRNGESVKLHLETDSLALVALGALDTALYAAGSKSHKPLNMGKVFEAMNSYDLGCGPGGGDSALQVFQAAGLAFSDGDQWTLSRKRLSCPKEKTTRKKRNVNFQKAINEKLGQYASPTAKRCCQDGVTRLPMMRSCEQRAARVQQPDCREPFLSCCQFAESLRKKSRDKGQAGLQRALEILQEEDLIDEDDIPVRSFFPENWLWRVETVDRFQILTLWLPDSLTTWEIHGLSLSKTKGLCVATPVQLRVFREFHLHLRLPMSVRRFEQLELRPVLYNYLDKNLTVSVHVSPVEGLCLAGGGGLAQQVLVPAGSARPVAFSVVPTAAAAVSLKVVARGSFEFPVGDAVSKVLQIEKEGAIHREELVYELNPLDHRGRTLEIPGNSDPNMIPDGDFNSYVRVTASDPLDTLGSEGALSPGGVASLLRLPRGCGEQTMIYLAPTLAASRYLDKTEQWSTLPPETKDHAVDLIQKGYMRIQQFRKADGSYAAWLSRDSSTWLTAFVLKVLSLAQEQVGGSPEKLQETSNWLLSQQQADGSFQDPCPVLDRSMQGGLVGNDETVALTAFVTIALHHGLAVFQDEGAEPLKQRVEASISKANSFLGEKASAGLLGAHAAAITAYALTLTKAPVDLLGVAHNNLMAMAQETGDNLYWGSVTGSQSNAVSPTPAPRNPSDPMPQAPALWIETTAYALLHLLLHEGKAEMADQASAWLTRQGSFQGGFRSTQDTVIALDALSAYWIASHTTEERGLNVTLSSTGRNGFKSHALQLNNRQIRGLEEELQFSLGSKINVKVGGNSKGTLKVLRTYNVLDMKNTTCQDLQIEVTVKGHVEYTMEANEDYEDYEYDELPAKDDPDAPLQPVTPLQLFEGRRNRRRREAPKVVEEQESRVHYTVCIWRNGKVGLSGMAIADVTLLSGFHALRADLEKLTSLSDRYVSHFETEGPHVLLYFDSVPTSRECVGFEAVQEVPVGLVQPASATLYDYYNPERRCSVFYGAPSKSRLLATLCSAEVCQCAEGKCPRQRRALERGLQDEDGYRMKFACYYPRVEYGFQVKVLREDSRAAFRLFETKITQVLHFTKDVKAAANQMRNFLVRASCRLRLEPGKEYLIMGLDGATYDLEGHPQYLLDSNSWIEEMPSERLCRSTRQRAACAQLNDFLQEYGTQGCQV

| Protein | lectin pathway-dependent C4 activation (C4 cleavage assay, C4b deposition on mannan) in pooled MASP-2-/- mouse serum |
| --- | --- |
| B1 | restored lectin pathway-dependent C4 activation in a protein concentration dependent manner |
| B2 | did not restore C4 activation |
